From patent US20240124553A1

What was measured:
Experiment in all cases: flow cytometry, transfected 293T cells
[1] = molecular target: CHIKV E2-6K-E1 envelope proteins (strain S27) with E2 S185A (Chikungunya virus strain S27) (UniProt Q8JUX5)
[2] = molecular target: CHIKV E2-6K-E1 envelope proteins (strain S27) with E2 T212A (Chikungunya virus strain S27) (UniProt Q8JUX5)
[3] = molecular target: CHIKV E2-6K-E1 envelope proteins (strain S27) with E2 G204A (Chikungunya virus strain S27) (UniProt Q8JUX5)
[4] = molecular target: CHIKV E2-6K-E1 envelope proteins (strain S27) with E2 G205A (Chikungunya virus strain S27) (UniProt Q8JUX5)
[5] = molecular target: CHIKV E2-6K-E1 envelope proteins (strain S27) with E2 C220A (Chikungunya virus strain S27) (UniProt Q8JUX5)
[6] = molecular target: CHIKV E2-6K-E1 envelope proteins (strain S27) with E2 L181A (Chikungunya virus strain S27) (UniProt Q8JUX5)

In the case of “Mxra8-Fc (mouse Mxra8 extracellular domain fused to mouse IgG2b Fc) (Fc fusion)”, the Binding Reactivity (% WT) [1] is reported as 88.1 % WT, the Binding Reactivity (% WT) [2] is reported as 94.6 % WT and the Binding Reactivity (% WT) [3] is reported as 76.7 % WT. For the same substance, the Binding Reactivity (% WT) [4] was 78.9 % WT, the Binding Reactivity (% WT) [5] was 60.2 % WT and the Binding Reactivity (% WT) [6] was 53.2 % WT.
